Reference: a protein production outcome set (Wang et al. 2014)

Experiment: label from the status in PepcDB records

Sequence: MGQAFAALSVWQVMGYGLVFFGGIYLLFGAATWLLTRRVLPALGVGRPLDPRPLGPGQWRREFLQSGLSVLIFGLGMVFPWGLVQLGWARLDDDAGPWRIVAEILVLVIWNDVHFWINHRLLHTRLLRRFHLPHHRSVVTTPFSTYSFHPIEALMLGNVILLPMVVHDFSFWSLLSVPLFSLFFNCVGHANYDFFPGVSYAHWFAASRRHHLHHACYQGNFGFQFTFMDRLFGTRLGADAAQGQLAAYRKRGAVGSAR
- protein production: failed

Sequence: MGGNRQQEIASGCCLVAEQHDQVVAYASYQPTGLLGQPLLTYLCVAPAMRGQGIAKQLVETIQGQARGRMLLSSTEDWCLASQKIFTDLGWRKIGALAGVNKDGSTEYFYAVDLNH
- protein production: failed

Sequence: MTVKTEAAKGTLTYSRMRGMVAILIAFMKQRRMGLNDFIQKIANNSYACKHPEVQSILKISQPQEPELMNANPSPPPSPSQQINLGPSSNPHAKPSDFHFLKVIGKGSFGKVLLARHKAEEVFYAVKVLQKKAILKKKEEKHIMSERNVLLKNVKHPFLVGLHFSFQTADKLYFVLDYINGGELFYHLQRERCFLEPRARFYAAEIASALGYLHSLNIVYRDLKPENILLDSQGHIVLTDFGLCKENIEHNSTTSTFCGTPEYLAPEVLHKQPYDRTVDWWCLGAVLYEMLYGLPPFYSRNTAEMYDNILNKPLQLKPNITNSARHLLEGLLQKDRTKRLGAKDDFMEIKSHVFFSLINWDDLINKKITPPFNPNVSGPNDLRHFDPEFTEEPVPNSIGKSPDSVLVTASVKEAAEAFLGFSYAPPTDSFL
- protein production: failed

Sequence: MALINLNHTDDGYDAYDACPARSVQQETAVGAGAQILLLALLGTAIGMGTAGWLTGLAFAFASWAVLSRALHRSRLPSFGPANRVTLGRATLVGGVTALVADSFRSAPPLSLLVGLTAVALILDGVDGRVARRTGTSTPLGARFDMEVDAFLILVLSVYVALDLGPWVLLIGGMRYVFVAAARVWPWLTAPLPPSTARKTVAALQGVLLLLAGAELLPRPGNAGVVAVALGLLVWSFGRDVRWLWRRSRVPAAPVTAVRELVAQ
- protein production: failed

Sequence: MPGEEVSQAKQQLKLIIDAYLSESDVDNVLAACDFADLAHSGITRKSGEPYILHPIAVSCILAHMRLDAETLMAALLHDVIEDTEHTKDEIGERFGEVVADLVDGVTKLTHSSDKQYNKAASFRKILQATLQDPRVIIIKLADRYHNMTTLDALRPDKRARIAQETFDIFVPMARIVGMNEMGDNLELLCYQNLDLDMYNNVQEALLETKPRRCEYQTKWEHHLGELLTTYHIHGRVKKKNNNIELLRHFVKNEIDLQELTHSHAFEIILNSISDCDRLVDALKENFQILHFEDHIRRPLPGGNQSIMMKLKGEQTTLSLTIQTELMRKAARFGVVLGENAPQACRSAIQASMQNLTTLIDGECAKTTFNDLLDYLHQEKIWVYTPHGHLHELPQGATVIDFAYSASLFLGNHAVGAKIDGEIRPLSTPLVSGQVIDVITDVLATPNPDWLSFINTQKARRAIQNMLRDQDIEEQLLVGQQALNRALKLFNRSMHDLSESDWLNVLQWRHVENKEALFEQIAVGDLLPQLVANHLYAQDTSDKTGHAPDRLIQGTEGVDVKYAHCCNPILGDPIQGHLSRRGLIVHRARCHNLLHEQHLHPENIMPLQWTSDDLDDVSFTAYLCIDMPLDGEQISELIYLCRKSHTGVEMVQPHGDHTYVNIVVNNRKVVAQIIRDLRMLFGFPRVSRLFTPAAVTESVKIKVS
- protein production: failed

Sequence: MTTTGHVHFYIGTYTNPPSTSTSTGIARLSLNTETGELTRLDDVVVQRNPSYLTTTEHGLYTFSEMDRNEGTELAFFRGSESVSLPINGDYPCHLDIKEPLLAVANYGSGNVSVFQLDRDGKPLGLLADLYVDGCGPNLERQTSPHAHQVTFLKHSHQLVVVDLGSDSVLIYDYDAQPPDFSLSQVIHLPAGSGPRHVVFNQQESTAYVVCELSETLIVLVKHQDKWLISNQTELLEGEENQQAAAAIRLSQDETFLYVSCRAQNKISMFDVSGDTPKRRAAIHCEGVFPRDFVLSHDQKWLLVANQHSNNVVSFRRNPQTGEITPTGYDCEIGSPVCIVEQPLLEHHHHHH
- protein production: failed

Sequence: MKVLIGGYTKKTSKGIYELPFIGEDNEAHLEKAENIISVGGPTYFQKDGDLVFTINNAGDEGGISAFKLSDHGSNEIDRHLTPGASPAYIGINKEKKLLYTANYHTAVLSVFQYSNSGKLALVAQTTHKAESLGPRPEQVDGPHPHFFDETPAGNLVSCDLGNDTVDFYRLENNELKHLAQYKNEAGFGDRHIVFSKDGNYFYVVGELSSQINVVKFNENTWEFEDIATYKTIPEDFTEHNGAAALYITNDGKYIYNSNRGHNSITVFKVNDDHTLSLIQRISTFGDFPRDFNWDETQKYVVAANQNTDNATLYLRNGGNGTLTPIQTEIPVPEGTRVLFTKLEHHHHHH
- protein production: failed

Sequence: MITSNLFDLRRWRANMSAMRFFALTSAALPLALMLLTSSFPAAAAEKSAAATKKDVIVEQADANNSPKQHLDQLFSQLKRERDPEKASGIANEIRMEWNDSGSATVNLLMQWADKAIEEKRNPAALDFLDEAIALKPDYAESWNRRATLNFVMGNYRKSMSDIERVLDLEPRHFGALSGMAAILSNSGNDQLTLKAWERFLDIYPAERTAQEQANTLAEKLAGNRT
- protein production: failed

Sequence: MNGSEFVPLSLTPLLIGVLAAVACALPGNFLVLRRQALIGDAISHVVLPGIVVAFLLTGAIAAWPMMLGAAGAAVVAVVLIEAIRRLGRIEPGAAMGVVFTTMFAAGVLLLEQTDTSTVHLDVEHALYGNLESLIWLDATGWASLLDPVALAGLPVELSRILVTLVGVVGFIWLFWRPLKLSTFDEGFARTLGIRTNLLGLALVIVAAVAAVAAFDAVGSIIVIAMFICPPAAARMMTNTLEGQVGWSVVFAILSAVLGYVLAGYGPLWLGARDAVSAAGMIATMSGLILALTARFGPCRSRTGAPVQA
- protein production: failed

Sequence: MLDPATIVAVPAPGRACGPCTLCCKVYDVPAVESPAGRWCRHVRSGGGCGIHAERPDHCRAFHCLWMTETWIGPEWRPDRAKMVLSLDPVTRFLNVQVDPGQAGAWKRAPYHDQLRRWAAASLPLQRYVLVHVNKVTTVVLPDRDVALGTFGPGDRLVGRERMTPAGMTADVEKVSQLA
- protein production: failed

Sequence: MAAVPPENGVDGDDEREEEEEDEEEEEEEEEEENGDEAEEEPRLKYQRMGGNVPALLSNDAASCIAVAARMIALGTHDGTVRILDLLGNQVKEFRAHTAPVNDINFDTEGEYIGSCSDDGSVVINSLFTDDEKMKFDYHRPMKAISLDPDYTKKQSKRFVAGGLAGHLYMNSKKWFGNKDQVLHSGEGPIHSVKWRGSLIAWANDVGVKVYDTAKDQRVTFIEKPRGSPRPEALLPHLVWQDDTLLVIGWGTSVKIASIKSDQQQTGTFRQIQMSSLTQVDIVASFQTSYYISGIAPFGDSLVILAYIPIEGDGEKEFSSTTTLSRQGNAQRPEIRIVSWNNDELTMDALPVHGFEHYKAKDYSLAHAPFPGSSYAGGQWAAGDEPLYYIVSPKDVVIAKPRDAEDHINWLLQHGFHEKALAAVEASEGRTELIDKVGAGYLDHLIVERKYAEAASLCPKLLRGSASAWERWVFHFAQLRQLPVLVPYMPTDNPRLKDTVYEVALVALATNPSYHKELLSAVKSWPRSVYSALTVISAIEPQLNTSSMTDALKEALAELYVIDGQYQKAFSLYADLLKPEVFDFIEKYSLHEAIRGKVVQLMLLDCKRATVLFIQNRDLIPPSEVVPQLLKAGKNPQVLKAGKKCDSRYYLYLYLHALFEVSHDTGKDFHDMQVELYAEYDTKMLLPFLRSSQHYKLEKAYELCVKKDFLREQVFVLGRMGNAKQALAVIINKLGDIEEAVEFVSMQHDDDLWEELIKQCLNKPEMVGLLLEHTVGNLDPLYIVNMVPNGLEIPRLRDRLVKIVTDYRTETSLRHGCNDILKTDIVNLLVKCFNEARRGVCLSHEDDDSRAKREDNNRSSFSQRMVVDKSLSIKMTEVKSKTRGDTRCCMCFDPVSIRGDTVVVFFCCHAYHETCLMDAAFSNNNHKTTKGSSGYEYSYDNGVDEEEEDEEEDEDGDGDRPGRSRLRCILCTTAAAASAR
- protein production: failed

Sequence: MTIQSEQALEQGLIKTLVSMNYQKIEIADENALIVNFRNQLNIHNNIELTDDEFNRIMIHLDSGSIFVKAEKLRNRFPLTRDDESVKWIEFLNTQEWCKNEFQVSNQITDEGRRKCRYDVTILVNGLPLVQVELKKRGVELKQAYSQVQRYHKTAFKGLFNYIQIFVISNGVNTRYFANNPNQGYKFTFPWADFKNNHIDRLDLFAAMFFEQCTLGKMLAKYVVLHQSDKCLMILRPYQFYAVEALLDKVANSVKNGYIWHTTGSGKTLTSFKAAQLIAEMSDIDKVLFVVDRHDLDTQTKKEYDAFAPGAVDSTDNTKELVKALQGKKKLMITTIQKLNNAVQKDRYSKGLQGVKDKNIVMIFDECHRSQFGEMHSNITGFFSKIRYFGFTGTPIFADNANNGCTTKDIFGERLHEYLIKDAIADENVLGFLVEYHGKWKRKSENDKQVKSIDTAEVLLKDERIASITDFILSNYNSSTYERDFNAMLAVGGVKMLIKYYDMFKSRNHDLKIATIFTYTQNEESEDEFTGLGQGFVSVQNTRDILESYIKDYNETFGTEFDTDHFGLYYDDINKRMKNRQIDLLIVSDMFLTGFDAKKLNTLYVDKNLNYHGLLQAFSRTNRVLNEKKKFGKITCFRDLKQQTDDAIKLYSNNKSSEVVLMKPYEKLVERFNEMAAEFLSYFPTVKSVGNLESELDKRRFVILFRAMLRLRNEVKGYNEFDAEDLTIEEQRFADYQSKYLDMSNEFAITSEKEDAESILQDIDFELELVHRDIINVMYILALLQDLKPESSSYPKDRKAVLDTMDSNPELRSKIALIDNFIKLHIDGRQSNDLPADMESDLDKYIATQKAIAIEQVATEEGIDSTLLHEYISEYEYLGKPKNEIIKRAIDPLKLSFMDAQSKKKSLIDKMKDIIKLFSWN
- protein production: failed

Sequence: MARQSTKFSDKFLRALKPQEKPYDIREGDGFGVRVFPSGARSFFYMYHFDGKRRFLNLGKYPQLSLADARQKHRDAVSQHAKGIDPLAATQEQKRERREAITVADLIDEYVKNWAKVYKVERSATEDERALSKDVLPYWGKRKAKDIKRTDAIALLERIVRRGSPGQARNILKVGRKMYEFAIERKYVEANPFSRISKAVPATMPRTRSRVLTESEIKYIWSAIDKSAGSDETKRALKLILVTAQRPGEVIGMHRREIDGEWWTIPPERIKTEKDRTRSNSVGPQPHRVYLSPLALELIGDKDGYIFESPRGGAMDSKALSHVVHAAPLVPELVRDTEGHVFAGPCGPVAAKALMQLLEKEIAYPDKEKYYGLTRWTPHDLRRTARTRMSAINIPTRHAERVLNHTLPGIQKTYDLYRYDPQKKAALTKWAAYLEELLR
- protein production: failed

Sequence: MFQLRKKMTRKQLALLSAGVLTCVVGGSYLIMNHQQQEIVSSVNKVKALTIKEAMEQGKDISLTLAGEVTANNSSKVKIDSSKGEVKEVFVKKGDVVKVGQPLFSYETSQRLTAQSSEFDVQTKANQLQVAKTNAALKWETYNRKVNEINTLKSRYNTAPDESLLEQIRSAEDSVSQALSDAKTADSDVKTAQIELDKANATATTEKGKLEYDTVKSDTAGTIVSLNTDLPNQSKSKKENETFMEIIDKSKMLVKGNISEFDRDKLKIGQKVEVIDRKDNSKKWTGKVTQVGNLKAEEKGQGQGQGGNDQQDNPNQAKFPYVIELDQSDKQPLIGSHTYVNVLNNVPEAGKIVLKETFTMAENGKTYVWKVDKNKVKKQEIKTKPFSKGYVEVTSGLTMQDKIAQPLPGMKDGMEVGSIVKP
- protein production: failed
